Data from paper PMC11558822, “Myc 9aaTAD activation domain binds to mediator of transcription with superior high affinity” (Molecular Medicine, 2024).
Each block holds one binder with its values, some of them ahead of it. No end group written: not given here. *: point of attachment. Biotin = O=C1N[C@H]2[C@H](CS[C@H]2CCCCC(=O)*)N1

Tests used:
[1] = biological target: T1, KIX domain of CBP coactivator (region 586-672) (UniProt P45481 586-672); assay: BLI; biotinylated peptide immobilised on streptavidin SA biosensors (Octet RED96e); KIX domain in solution at 0.31, 0.63, 1.25, 2.5 and 5.0 uM; 30 C, 1000 rpm; 20 mM sodium phosphate pH 6.0, 50 mM NaCl; blank-subtracted, 1:1 model, steady-state analysis; apparent KD, average of pentaplicate; conditions: both partners purified
T1 construct: GST-His6x tag removed by TEV protease; also called KIX protein; source: expressed as GST-His6x-TEV-KIX from pGEX-2T, purified (His trap Ni column, TEV cleavage, second His trap, HiLoad S30); not shown: GST, N-terminal, cleaved; His6, N-terminal, cleaved
T1 sequence (P45481 other isoform, or with tags, fused parts or gaps): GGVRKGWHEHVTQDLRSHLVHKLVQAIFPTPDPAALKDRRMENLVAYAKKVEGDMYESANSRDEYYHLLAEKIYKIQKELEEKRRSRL

[2] = biological target: T1, KIX domain of CBP coactivator (region …); assay: BLI; biotinylated Sp1 or Sp1-Ac peptide immobilised, KIX in solution in the 3-16 uM range; steady-state analysis, 1:1 model; apparent KD; conditions: both partners purified

B2: c-Myc 9aaTAD peptide (Biotin-GSSS-TQLEMVTELLG) (peptide)
peptide: Biotin-GSSSTQLEMVTELLG
notes: linker between biotin and the c-Myc stretch; it may belong to the linker; also called c-Myc peptide; MYC peptide; source: synthetic peptide (Apeptide Shanghai Chutide Biotechnology), 95% purity
Kd [1]: 2160 ± 1170 nM

B4: Sp1-Ac peptide, acidic form of Sp1 9aaTAD (Biotin-GSS-GDVSWDTLDLDDLD) (peptide)
peptide: Biotin-GSSGDVSWDTLDLDDLD
notes: linker between biotin and the Sp1 stretch; also called #SpD; acidic modification; source: synthetic peptide (Apeptide Shanghai Chutide Biotechnology), 95% purity
Kd [2]: 9770 ± 1570 nM

Continued, values first:

Kd [1]: 880 ± 110 nM
B1: N-Myc 9aaTAD peptide (Biotin-GSSS-EPPSWVTEMLLEN) (peptide)
peptide: Biotin-GSSSEPPSWVTEMLLEN
notes: linker between biotin and the N-Myc stretch; human N-Myc stretch with its 9aaTAD; also called N-Myc peptide; NMY peptide; source: synthetic peptide (Apeptide Shanghai Chutide Biotechnology), 95% purity

Kd [1]: 1170 ± 210 nM
B3: MLL 9aaTAD peptide (Biotin-GS-NILPSDIMDFVLKNT) (peptide)
peptide: Biotin-GSNILPSDIMDFVLKNT
notes: linker between biotin and the MLL stretch; MLL stretch with its 9aaTAD; Positive control of the BLI assay; also called MLL peptide; source: synthetic peptide (Apeptide Shanghai Chutide Biotechnology), 95% purity
